From patent publication US20240117043A1 (SHANGHAI JUNSHI BIOSCIENCES, published 2024)

T1: human CD112R-mFc protein (human, UniProt Q6DKI7 41-171, limits assumed)
T1 construct: also called human CD112R protein; not shown: mouse Fc (mFc)
T1 sequence (looked up): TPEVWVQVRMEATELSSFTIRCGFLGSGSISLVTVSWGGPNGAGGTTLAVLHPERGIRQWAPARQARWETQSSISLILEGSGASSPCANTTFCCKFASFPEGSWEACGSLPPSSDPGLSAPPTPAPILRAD

T2: recombinant human HX1 hCD112R Fc (human, UniProt Q6DKI7 41-171, limits assumed)
T2 construct: Coated antigen of the ELISA (Suzhou Junmeng); also called human CD112R; not shown: Fc part
T2 sequence (looked up): T1 sequence (looked up)

T3: recombinant human TIGIT (His Tag) (human, UniProt Q495A1 22-141)
T3 construct: Coated antigen of the ELISA; not shown: His tag
T3 sequence (looked up): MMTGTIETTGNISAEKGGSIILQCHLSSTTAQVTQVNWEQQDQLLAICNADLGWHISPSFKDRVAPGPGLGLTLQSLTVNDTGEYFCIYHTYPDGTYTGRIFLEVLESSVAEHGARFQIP

T4: human TIGIT on the surface of Jurkat-hTIGIT cells (human, UniProt Q495A1 22-244)
T4 construct: whole, on cells; also called human TIGIT on the surface of Jurkat cells
T4 sequence (looked up): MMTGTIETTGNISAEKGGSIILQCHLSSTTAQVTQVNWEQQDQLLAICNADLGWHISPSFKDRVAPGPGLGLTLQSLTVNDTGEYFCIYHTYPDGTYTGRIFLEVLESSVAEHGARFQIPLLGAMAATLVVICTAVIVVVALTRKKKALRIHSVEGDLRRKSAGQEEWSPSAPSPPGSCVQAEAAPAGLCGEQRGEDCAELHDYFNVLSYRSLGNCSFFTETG

B1: bispecific antibody JS-3 (IgG4) (bispecific antibody)
chain 1: not shown
chain 2: DIVMTQSPDSLAVSLGERATINCKASQSVSNDVAWYQQKPGQPPKLLIYYVSHRFTGVPDRFSGSGSGTDFTLTISSLQAEDVAVYFCHQAYRSPWTFGQGTKLEIKRTVAAPSVFIFPPSDEQLKSGTASVVCLLNNFYPREAKVQWKVDNALQSGNSQESVTEQDSKDSTYSLSSTLTLSKADYEKHKVYACEVTHQGLSSPVTKSFNRGECSGGGSGGGSEGGGSEGGGSEGGGSEGGGSGGGSGEVQLVESGGGLVKPGGSLRLSCAASGFTFSSYHMSWVRQAPGKGLELVSAINSNGINTYYLDTVKGRFTISRDNAKNSLYLQMNSLRAEDTAVYYCARHEDYYGFAMDYWGQGTLVTVSSASTKGPSVFPLAPCSRSTSESTAALGCLVKDYFPEPVTVSWNSGALTSGVHTFPAVLQSSGLYSLSSVVTVPSSSLGTKTYTCNVDHKPSNTKVDKRVESKYGPPCPPCPAPEFLGGPSVFLFPPKPKDTLMISRTPEVTCVVVDVSQEDPEVQFNWYVDGVEVHNAKTKPREEQFNSTYRVVSVLTVLHQDWLNGKEYKCKVSNKGLPSSIEKTISKAKGQPREPQVCTLPPSQEEMTKNQVSLSCAVKGFYPSDIAVEWESNGQPENNYKTTPPVLDSDGSFFLVSRLTVDKSRWQEGNVFSCSVMHEALHNRFTQKSLSLSLGK
notes: Two-chain scFab/scFab knob-into-hole format, IgG4 Fc
B2: bispecific antibody JS-1 (IgG4) (bispecific antibody)
heavy: QVQLVQSGAEVKKPGASVKVSCKTSGYAFTEYTMHWVRQAPGKGLEWMGGINPNTGGTTYNQKFQGRVTLTVDKSSSTAYMELSSLRSEDTVVYYCAKLLRLMYYFDYWGQGTLVTVSSASTKGPSVFPLAPCSRSTSESTAALGCLVKDYFPEPVTVSWNSGALTSGVHTFPAVLQSSGLYSLSSVVTVPSSSLGTKTYTCNVDHKPSNTKVDKRVESKYGPPCPPCPAPEFLGGPSVFLFPPKPKDTLMISRTPEVTCVVVDVSQEDPEVQFNWYVDGVEVHNAKTKPREEQFNSTYRVVSVLTVLHQDWLNGKEYKCKVSNKGLPSSIEKTISKAKGQPREPQVYTLPPCQEEMTKNQVSLWCLVKGFYPSDIAVEWESNGQPENNYKTTPPVLDSDGSFFLYSRLTVDKSRWQEGNVFSCSVMHEALHNHYTQKSLSLSLGK
light: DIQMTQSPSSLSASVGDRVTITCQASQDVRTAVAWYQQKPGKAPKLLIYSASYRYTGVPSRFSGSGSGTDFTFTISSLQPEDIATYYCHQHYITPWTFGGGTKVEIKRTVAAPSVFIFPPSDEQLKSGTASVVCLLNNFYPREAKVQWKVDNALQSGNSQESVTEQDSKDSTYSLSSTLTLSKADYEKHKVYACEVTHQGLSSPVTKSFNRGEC
chain: DIVMTQSPDSLAVSLGERATINCKASQSVSNDVAWYQQKPGQPPKLLIYYVSHRFTGVPDRFSGSGSGTDFTLTISSLQAEDVAVYFCHQAYRSPWTFGCGTKLEIKGGGGSGGGGSGGGGSGGGGSEVQLVESGGGLVKPGGSLRLSCAASGFTFSSYHMSWVRQAPGKCLELVSAINSNGINTYYLDTVKGRFTISRDNAKNSLYLQMNSLRAEDTAVYYCARHEDYYGFAMDYWGQGTLVTVSSGGGGSGGGGSESKYGPPCPPCPAPEFLGGPSVFLFPPKPKDTLMISRTPEVTCVVVDVSQEDPEVQFNWYVDGVEVHNAKTKPREEQFNSTYRVVSVLTVLHQDWLNGKEYKCKVSNKGLPSSIEKTISKAKGQPREPQVCTLPPSQEEMTKNQVSLSCAVKGFYPSDIAVEWESNGQPENNYKTTPPVLDSDGSFFLVSRLTVDKSRWQEGNVFSCSVMHEALHNRFTQKSLSLSLGK
notes: Three-chain knob-into-hole format: anti-TIGIT Fab arm and anti-CD112R scFv arm, IgG4 Fc

Legend:
[1] = molecular target: T1, human CD112R-mFc protein; assay: flow cytometry, blocking of 1 ug/mL CD112R-mFc binding to CHO hCD112 cells
Description: CHO hCD112 cells (Chinese hamster ovary cells, human CD112 positive) were incubated with different concentrations of the bispecific antibodies JS-1, JS-3, JS-5 and JS-9 and 1 μg/mL human CD112R-mFc protein at 4° C. for 30 min, then washed twice and incubated with a fluorescence-labeled anti-mouse IgG secondary antibody (1:200) in a dark place at 4° C. for 30 min. Finally, the cells were collected using a flow cytometer (BD Canto II), and the fluorescent antibodies bound to the cell surface were detected. Raw data were analyzed using FlowJo to obtain MFI values, antibody dose-dependent binding curves (FIG. 4) were fitted using GraphPad, and IC50 was calculated. The positive controls were hu52 (a recombinant humanized anti-CD112R monoclonal antibody) and JS-Ref (Hengrui) (an anti-TIGIT/CD112R bispecific antibody of Hengrui, expressed and purified according to the sequence of the patent WO2021180205), and the negative control was an anti-KLH-hIgG1 antibody.

[2] = molecular target: T2, recombinant human HX1 hCD112R Fc; assay: ELISA, relative binding activity, sample kept at 40 C for 0 weeks
Description: (§1) The antibody samples were exchanged into a pH 5.5 buffer system (20 mM histidine-histidine hydrochloride buffer, 230 mM trehalose) with the concentration of the samples controlled at about 5 mg/mL, and the buffer was aliquoted into vials at 500 μL/vial. The vials were placed in a 40° C. incubator to test stability at 0 W, 2 W and 4 W. Samples were sent for analysis according to Table 2. Stability was assessed by the following parameters: (a) the content of antibody monomers, aggregates or fragments determined by SEC-HPLC (size exclusion chromatography); (b) the molecular weight of the antibody determined by CE-SDS (sodium dodecyl sulfate capillary electrophoresis); and (c) the bioactivity of the antibody determined by an ELISA or reporter gene assay.

[3] = molecular target: T3, recombinant human TIGIT (His Tag); assay: as above
Description: as §1

[4] = molecular target: T2, recombinant human HX1 hCD112R Fc; assay: ELISA, plate coated with recombinant human HX1 hCD112R Fc, detection with HRP anti-human IgG4 Fc; unit taken from the concentration axis [3a]
Description: 2. Procedures [0255] a. A 96-well plate was coated with 1.0 μg/mL recombinant human HX1 hCD112R Fc (Suzhou Junmeng) as the antigen at 100 μL/well and incubated at 37° C. for 1.5 h. [0256] b. The plate was washed 4 times with 300 μL/well 1×PBST, and 2% BSA was added at 200 μL/well. The plate was blocked at 37° C. for 1.5 h. [0257] c. The plate was washed 4 times with 300 μL/well 1×PBST, and serial dilutions of the bispecific antibodies JS-1,3,5,9 and a negative control: antibody (anti-KLH hIgG4) (initial concentration 3.0 μg/mL, 3-fold serially diluted to 12 concentration points, 100 μL/well) were added. The plate was incubated at 37° C. for 1 h. [0258] d. The plate was washed 4 times with 300 μL/well 1×PBST. [0259] e. 5000-fold diluted horseradish peroxidase (HRP)-conjugated mouse anti-human IgG4 Fc antibody (Southern Biotech, 9200-05) was added at 100 μL/well, and the plate was incubated at 37° C. for 1 h. [0260] f. The plate was washed 4 times with 300 μL/well 1×PBST. [0261] g. 0.1 mg/mL TMB was added at 100 μL/well, and after the plate was incubated at 37° C. for 15 min, a 2 M solution of hydrochloric acid was added at 100 μL/well to stop the reactions. […] The absorbance was measured at 450 nm/620 nm on a microplate reader, and data were analyzed using Graphpad Prism7.

[5] = molecular target: T2, recombinant human HX1 hCD112R Fc; assay: ELISA, relative binding activity, sample kept at 40 C for 4 weeks
Description: as §1

[6] = molecular target: T3, recombinant human TIGIT (His Tag); assay: as above
Description: as §1

[7] = molecular target: T4, human TIGIT on the surface of …; assay: flow cytometry, blocking of 1 ug/mL PVR-mFc binding to Jurkat-hTIGIT cells
Description: Jurkat-hTIGIT cells (human T lymphocytes, human TIGIT positive) were incubated with different concentrations of the bispecific antibodies JS-1, JS-3, JS-5 and JS-9 and 1 μg/mL human PVR-mFc protein at 4° C. for 30 min, then washed and incubated with a fluorescence-labeled anti-mouse IgG secondary antibody (1:200) in a dark place at 4° C. for 30 min. Finally, the cells were collected using a flow cytometer (BD Canto II), and the fluorescent antibodies bound to the cell surface were detected. Raw data were analyzed using FlowJo to obtain MFI values, antibody dose-dependent binding curves (FIG. 4) were fitted using GraphPad, and IC50 was calculated. The positive controls were hu20 (a recombinant humanized anti-TIGIT monoclonal antibody) and JS-Ref (Hengrui) (an anti-TIGIT/CD112R bispecific antibody of Hengrui, expressed and purified according to the sequence of the patent WO2021180205), and the negative control was an anti-KLH-hIgG4 antibody.

Binder	IC50 [1]	CD112R binding activity Elisa (%) [2]	TIGIT binding activity Elisa (%) [3]	EC50 [4]	CD112R binding activity Elisa (%) [5]	TIGIT binding activity Elisa (%) [6]	IC50 [7]
B1	0.696 nM	102%	111%	4.02 ng/mL	88%	84%	6.78 nM
B2	0.915 nM	101%	100%	4.03 ng/mL	86%	97%	5.42 nM
